In US11918645B2, “Vaccines against hepatitis B virus” (priority 2012, dated 2024):

How the values were obtained:
[1] = biological target: T1, HLA-B*0702 (Homo sapiens, UniProt P01889); experiment: ProImmune REVEAL MHC class I binding assay of nonamers; details: score as % of positive control peptide
T1 construct: purchased ProImmune
Description: (§1) The number of HLA class I binding registers contained in each peptide may be determined by determining the ability of the peptide to bind to a range of frequently occurring HLA class I molecules. HLA class I binding may be measured using the ProImmune REVEAL® MHC-peptide Binding Assay (ProImmune Ltd, Oxford, UK). The REVEAL™ MHC peptide-binding assay measures the ability of each peptide to stabilize the ternary MHC-peptide complex for […], HLA-A*0201, HLA¬A*0301, HLA-A*2402, HLA-B*0702, HLA-B*0801, HLA-B*3501 representative of main HLA class I supertypes. Each tested peptide is given a score relative to a pass/fail control peptide and also compared to a positive control peptide.
(§2) Detection is based on the presence or absence of the native conformation of the MHC-peptide complex. The highly frequent HLA class I alleles (HLA-A*0201, A*0301, A*1101, A*2402, B*0702, B*0801, and B*3501) were selected. Binding to MHC molecules was compared to that of a known T-cell epitope, a positive control peptide, with very strong binding properties. […] The score of the test peptide is reported quantitatively as a percentage of the signal generated by the positive control peptide, and the peptide is indicated as having a putative pass or fail result. Good binders are considered to be those peptides with scores 45% of the positive control as defined by ProImmune.

[2] = biological target: HLA-B*0801 (Homo sapiens, UniProt P01889, A93T/A95T/D138N/E176V/E187T/K202T/Q94N/R180D/S35A/V36M/Y33D/Y91F); experiment: as above; details: score as % of positive control peptide
Description: as §1, §2

[3] = biological target: HLA-A*0201 (Homo sapiens, UniProt P04439, D140Y/D185E/D98H/E176V/E277Q/G131W/G231S/I119V/I121R/I166T/I218V/L300P/L318F/N151K/N90K/P208A/P217A/Q86G/Q94H/R138H/R169H/T345S); experiment: as above; details: score as % of positive control peptide
Description: as §1, §2

[4] = biological target: T2, HLA-A*0301 (Homo sapiens, UniProt P04439); experiment: as above; details: score as % of positive control peptide
T2 construct: purchased ProImmune
Description: as §1, §2

[5] = biological target: HLA-B*3501 (Homo sapiens, UniProt P01889, A329T/A93T/A95T/C349S/D201E/D98Y/E176V/E187L/E204Q/E69T/I218V/K202T/L119I/Q94N/R155S/R180L/S121R/S35A/S48A/T118I/V127L/V306I/V36M/Y140S/Y91F); experiment: as above; details: score as % of positive control peptide
Description: as §1, §2

[6] = biological target: HLA-A*2402 (Homo sapiens, UniProt P04439, D101N/D140Y/D185E/E176V/E190D/F33S/G103R/G107R/I119L/I121M/I306V/K335N/L105A/L180Q/L300P/N151K/N90K/Q86E/Q94H/R106L/R138H/R89G/T104I/T345S/V100E/W191G/Y123F); experiment: as above; details: score as % of positive control peptide
Description: as §1, §2

[7] = biological target: T3, HLA-A*1101 (Homo sapiens, UniProt P04439, A114D/D185E/E176A/F33Y/L180Q/S129P/T187R); experiment: as above; details: score as % of positive control peptide
T3 construct: purchased ProImmune
Description: as §1, §2

[8] = test system: HLA class I alleles; experiment: ProImmune REVEAL MHC class I binding assay, summary over the seven alleles; set-up: species or system human; details: for Number of allele (b): number of class I alleles for which positive binding was detected; for Number of HLA binders (a): total number binding epitopes detected for each long peptide, seven class I alleles
Description: as §1, §2

[9] = test system: HLA-DR3 (α1*01:01;β1*03:0); experiment: ProImmune REVEAL MHC class II binding assay of long peptides; set-up: species or system human; details: percentage of the signal of the positive control peptide; positive binding score >=15%
Description: (§3) The highly frequent HLA class II alleles HLA-DR1 (α1*01:01;β1*01:01), HLA-DR15 (α1*01:01;β1*15:01), HLA-DR3 (α1*01:01;β1*03:01), HLA-DR4 (α1*01:01;β1*04:01), HLA-DR11 (α1*01:01;β1*11:01), HLA-DR13 (α1*01:01;β1*13:01), and HLA-DR7 (α1*01:01;β1*07:01) were selected. Each peptide was given a score relative to the positive control peptide, which is a known T-cell epitope. The score of the test peptide is reported quantitatively as a percentage of the signal generated by the positive control peptide, and the peptide is indicated as having a putative pass or fail result. Good binders are considered to be those peptides with scores >=15% of the positive control as defined by Proimmune.

[10] = test system: HLA-DR1 (α1*01:01;β1*01:01); experiment: as above; set-up: species or system human; details: percentage of the signal of the positive control peptide; positive binding score >=15%
Description: as §3

[11] = biological target: T4, HLA-DR15 (α1*01:01;β1*15:01) (Homo sapiens, UniProt P01903+P01911); experiment: as above; details: percentage of the signal of the positive control peptide; positive binding score >=15%
T4 construct: purchased ProImmune
Description: as §3

[12] = biological target: T5, HLA-DR7 (α1*01:01;β1*07:01) (Homo sapiens, UniProt P01903+P01911, A100R/A102G/A103Q/D57E/D86V/E43K/F76Y/K127E/L162R/M171V/P40G/Q125H/Q99D/R195Q/R33Q/R42Y/R54Q/S133A/S149N/S66F/T210M/V115G/Y107V/Y59L/Y89S); experiment: as above; details: percentage of the signal of the positive control peptide; positive binding score >=15%
T5 construct: purchased ProImmune
Description: as §3

| Substance | Number of nonamers having a binding score >= 45%, HLA-B*0702 [1] | Number of nonamers having a binding score >= 45%, HLA-B*0801 [2] | Number of nonamers having a binding score >= 45%, HLA-A*0201 [3] | Number of nonamers having a binding score >= 45%, HLA-A*0301 [4] | Number of nonamers having a binding score >= 45%, HLA-B*3501 [5] | Number of nonamers having a binding score >= 45%, HLA-A*2402 [6] | Number of nonamers having a binding score >= 45%, HLA-A*1101 [7] | Number of allele (b) [8] | Number of HLA binders (a) [8] | binding score, HLA-DR3 (α1*01:01;β1*03:0) [9] [%] | binding score, HLA-DR1 (α1*01:01;β1*01:01) [10] [%] | binding score, HLA-DR15 (α1*01:01;β1*15:01) [11] [%] | binding score, HLA-DR7 (α1*01:01;β1*07:01) [12] [%] |
| --- | --- | --- | --- | --- | --- | --- | --- | --- | --- | --- | --- | --- | --- |
| NP753(K): unconjugated HBV long peptide, core KK + 738-770 (S to T at 743) + KKK (KKKEFGATVELLSFLPSDFFPSVRDLLDTASALYRKKK; HBV CONSENSUS SEQUENCE) | 1 | 1 | 3 | 0 | 1 | 3 | 1 | 6 | 10 | 0.00 | 0.11 | 0.00 | 0.00 |
| NP113: unconjugated HBV long peptide, polymerase region 96-130 of virtual HBV proteome (VGPLTVNEKRRLKLIMPARFYPNVTKYLPLDKGIK; HBV CONSENSUS SEQUENCE) | 2 | 3 | 2 | 3 | 2 | 3 | 5 | 7 | 20 | 49.98 | 54.44 | 28.04 | 99.17 |
| NP151: unconjugated HBV long peptide, polymerase region 134-168 (PEHVVNHYFQTRHYLHTLWKAGILYKRETTRSASF; HBV CONSENSUS SEQUENCE) | 3 | 4 | 3 | 4 | 0 | 4 | 3 | 6 | 21 | 0.00 | 14.59 | 38.96 | 19.41 |
